Blank lines part the entries; values can stand above or below the molecule they belong to.
Key:
[1] = system: normotensive Wister rats; experiment: Bradykinin-potentiating effect on blood pressure in anaesthetized normotensive rats; assay type: in vivo, rat; details: Captopril 1.5 × 10^−4 M + Bradykinin 2.5 × 10^−6 M
Description: In the in vivo experiments with normotensive rats the animals were previously anaesthetized and after blood pressure stabilization treated with a constant amount of bradykinin. Subsequently, either Captopril or human BPP were administered, again followed by a constant amount of bradykinin. Afterwards the maximum blood pressure drop was determined and, on the basis of bradykinin as a factor 1, the potentiating factor was determined. In the same way, the systolic and diastolic blood pressure, the percentage middle pressure decrease and the time required to come back to the baseline values were measured (see tables 4a to 4j). A detailed experimental description is given below.
2. Measurement of Blood Pressure in Normotensive and Hypertensive Rats
The trials were conducted on female anaesthetized normotensive Wister rats with weight ranging from 210 to 240 g.
The peptide pANP48-57 used for the in vivo assays was synthesized by Biosynthan (Berlin) with a HPLC-determined purity of 98%.
Anaesthetizing was performed by i.p.-administration of 1 ml/kg Ketavit (100 mg/ml)+Rampun (2%).
In order to conduct the blood pressure measurement, a polyethylene catheter was introduced into the Aorta femuralis and connected with a pressure transducer. A Statham-P23A pressure-transducer was linked to a Gould Polygraph and used to determine the arterial blood pressure. A Hg-manometer was used to calibrate the system.
All substances were dissolved and diluted in a physiological sodium chloride solution and introduced into the Vena jugularis via a catheter.
After stabilization of blood pressure (after about 10 minutes) […] body weight of a 2,5 μM bradykinin-solution (Sigma) was administered.
The middle pressure was determined from the measured diastolic (pd) and systolic (ps) blood pressure by using the following formula: pm=(ps−Pd)×0,42+pd.

[2] = biological target: T1, angiotensin-converting-enzyme derived from pig kidney (pig) (UniProt F1RRW5); experiment: cell-based or functional assay
T1 sequence (looked up): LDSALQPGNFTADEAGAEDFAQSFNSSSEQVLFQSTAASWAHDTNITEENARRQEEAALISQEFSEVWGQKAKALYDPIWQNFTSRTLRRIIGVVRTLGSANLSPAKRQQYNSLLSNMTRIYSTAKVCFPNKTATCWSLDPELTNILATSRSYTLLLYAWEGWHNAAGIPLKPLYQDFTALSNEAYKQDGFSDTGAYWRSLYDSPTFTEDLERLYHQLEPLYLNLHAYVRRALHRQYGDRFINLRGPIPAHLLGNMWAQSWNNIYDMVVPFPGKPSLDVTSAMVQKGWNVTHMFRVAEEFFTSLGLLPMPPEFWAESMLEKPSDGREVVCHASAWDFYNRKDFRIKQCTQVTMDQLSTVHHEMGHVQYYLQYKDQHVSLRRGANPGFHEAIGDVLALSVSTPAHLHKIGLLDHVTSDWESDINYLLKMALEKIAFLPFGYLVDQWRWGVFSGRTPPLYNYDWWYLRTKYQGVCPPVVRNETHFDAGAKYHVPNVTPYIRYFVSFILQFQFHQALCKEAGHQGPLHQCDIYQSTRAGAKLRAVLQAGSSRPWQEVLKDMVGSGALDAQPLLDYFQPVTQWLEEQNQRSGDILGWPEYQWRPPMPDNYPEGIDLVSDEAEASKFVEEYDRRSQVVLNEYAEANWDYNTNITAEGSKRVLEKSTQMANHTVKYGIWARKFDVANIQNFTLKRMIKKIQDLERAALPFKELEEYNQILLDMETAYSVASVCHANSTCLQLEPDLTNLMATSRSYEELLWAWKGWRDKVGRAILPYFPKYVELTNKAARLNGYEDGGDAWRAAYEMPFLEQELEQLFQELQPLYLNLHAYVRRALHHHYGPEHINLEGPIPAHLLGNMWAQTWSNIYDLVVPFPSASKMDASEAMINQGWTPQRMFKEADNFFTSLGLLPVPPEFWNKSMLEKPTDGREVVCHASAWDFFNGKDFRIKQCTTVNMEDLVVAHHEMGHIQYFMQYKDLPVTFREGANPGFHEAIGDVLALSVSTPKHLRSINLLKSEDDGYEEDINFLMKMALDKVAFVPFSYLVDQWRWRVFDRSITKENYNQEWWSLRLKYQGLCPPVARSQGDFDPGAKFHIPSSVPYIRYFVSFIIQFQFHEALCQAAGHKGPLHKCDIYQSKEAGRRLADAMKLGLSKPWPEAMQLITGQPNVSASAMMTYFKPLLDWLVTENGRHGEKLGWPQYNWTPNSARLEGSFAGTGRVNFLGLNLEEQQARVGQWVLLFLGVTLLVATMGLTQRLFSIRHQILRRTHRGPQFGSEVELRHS

Molecule: C[C@H](CS)C(=O)N1CCC[C@H]1C(=O)O [Captopril, reference compound]
- potentiating factor (factor by which the blood pressure reducing effect of Bradykinin is potentiated, Bradykinin = 1) [1]: 2
- maximal drop of blood pressure ([1]; normotensive rats): 56% ± 17.3

- % inhibition at 0.39 µM, A [2]: 10.2%
- % inhibition at 0.39 µM, B [2]: 6.82%
- % inhibition at 0.39 µM, C [2]: 6.02%
- % inhibition at 0.39 µM, D [2]: 0.575%
- % inhibition at 0.78125 µM, A [2]: 9.62%
- % inhibition at 0.78125 µM, B [2]: 10%
- % inhibition at 0.78125 µM, C [2]: 7.72%
- % inhibition at 0.78125 µM, D [2]: 10.8%
- % inhibition at 1.5625 µM, A [2]: 13.4%
- % inhibition at 1.5625 µM, B [2]: 14.9%
- % inhibition at 1.5625 µM, C [2]: 9.3%
- % inhibition at 1.5625 µM, D [2]: 12.9%
- % inhibition at 3.125 µM, A [2]: 21.8%
- % inhibition at 3.125 µM, B [2]: 18%
- % inhibition at 3.125 µM, C [2]: 16%
- % inhibition at 3.125 µM, D [2]: 11.6%
- % inhibition at 6.25 µM, A [2]: 31.4%
- % inhibition at 6.25 µM, B [2]: 29.2%
- % inhibition at 6.25 µM, C [2]: 28%
- % inhibition at 6.25 µM, D [2]: 25.7%
- % inhibition at 12.5 µM, A [2]: 36.6%
- % inhibition at 12.5 µM, B [2]: 36.5%
- % inhibition at 12.5 µM, C [2]: 35.3%
- % inhibition at 12.5 µM, D [2]: 34.5%
- % inhibition at 25 µM, A [2]: 52%
- % inhibition at 25 µM, B [2]: 46.2%
- % inhibition at 25 µM, C [2]: 49.3%
- % inhibition at 50 µM, A [2]: 67.1%
- % inhibition at 50 µM, B [2]: 65%
- % inhibition at 50 µM, C [2]: 63.6%
- % inhibition at 50 µM, D [2]: 56%
- % inhibition at 100 µM, A [2]: 79.8%
- % inhibition at 100 µM, B [2]: 78.4%
- % inhibition at 100 µM, C [2]: 78.4%
- % inhibition at 100 µM, D [2]: 78%
- % inhibition at 200 µM, A [2]: 89.6%
- % inhibition at 200 µM, B [2]: 89.4%
- % inhibition at 200 µM, C [2]: 88.5%
- % inhibition at 200 µM, D [2]: 88.6%
- fluorescence at 0.39 µM, A [2]: 934000
- fluorescence at 0.39 µM, B [2]: 969000
- fluorescence at 0.39 µM, C [2]: 977000
- fluorescence at 0.39 µM, D [2]: 1.03e+06
- fluorescence at 0.78125 µM, A [2]: 940000
- fluorescence at 0.78125 µM, B [2]: 935000
- fluorescence at 0.78125 µM, C [2]: 959000
- fluorescence at 0.78125 µM, D [2]: 928000
- fluorescence at 1.5625 µM, A [2]: 900000
- fluorescence at 1.5625 µM, B [2]: 885000
- fluorescence at 1.5625 µM, C [2]: 943000
- fluorescence at 1.5625 µM, D [2]: 906000
- fluorescence at 3.125 µM, A [2]: 814000
- fluorescence at 3.125 µM, B [2]: 853000
- fluorescence at 3.125 µM, C [2]: 874000
- fluorescence at 3.125 µM, D [2]: 919000
- fluorescence at 6.25 µM, A [2]: 715000
- fluorescence at 6.25 µM, B [2]: 737000
- fluorescence at 6.25 µM, C [2]: 750000
- fluorescence at 6.25 µM, D [2]: 773000
- fluorescence at 12.5 µM, A [2]: 661000
- fluorescence at 12.5 µM, B [2]: 662000
- fluorescence at 12.5 µM, C [2]: 674000
- fluorescence at 12.5 µM, D [2]: 683000
- fluorescence at 25 µM, A [2]: 502000
- fluorescence at 25 µM, B [2]: 562000
- fluorescence at 25 µM, C [2]: 530000
- fluorescence at 25 µM, D [2]: 560000
- fluorescence at 50 µM, A [2]: 346000
- fluorescence at 50 µM, B [2]: 367000
- fluorescence at 50 µM, C [2]: 382000
- fluorescence at 50 µM, D [2]: 460000
- fluorescence at 100 µM, A [2]: 214000
- fluorescence at 100 µM, B [2]: 229000
- fluorescence at 100 µM, C [2]: 229000
- fluorescence at 100 µM, D [2]: 233000
- fluorescence at 200 µM, A [2]: 113000
- fluorescence at 200 µM, B [2]: 116000
- fluorescence at 200 µM, C [2]: 125000
- fluorescence at 200 µM, D [2]: 124000
Molecule: Peptid S547 (SPLPEVPP) (peptide)

From patent US20030203373A1 (priority 2002, published 2003)
